This is an account of results in patent US20250333506A1 (NEW YORK UNIVERSITY, published 2025).

The target of test [1] is T1, cynomolgus Gamma/Delta1A TCR-Fc fusion protein (cynomolgus monkey, biotinylated in vitro with recombinant BirA (AviTag)).
T1 construct: First chain = delta, second = gamma; also called Cyno D1; cyno D1; not shown: Fc portion of mouse IgG, then AviTag and His6 tag at the C-terminus; Fc portion of mouse IgG
Kind of test: bead binding assay (TCR-Fc on streptavidin beads, IgG titrated, flow cytometry); apparent KD, s.d. of triplicates. A general note: A flow cytometer gives signals particle by particle.

The target of test [2] is T2, Cyno D2 (biotinylated (AviTag)).
T2 construct: also called cynomolgus Gamma/Delta2; Cyno D2/G
T2 delta chain: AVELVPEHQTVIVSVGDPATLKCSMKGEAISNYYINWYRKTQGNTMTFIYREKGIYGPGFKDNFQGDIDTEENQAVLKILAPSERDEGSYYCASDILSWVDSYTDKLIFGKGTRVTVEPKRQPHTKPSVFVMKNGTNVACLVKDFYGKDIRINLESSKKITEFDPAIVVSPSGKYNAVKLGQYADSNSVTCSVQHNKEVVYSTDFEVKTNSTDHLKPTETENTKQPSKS
T2 gamma chain: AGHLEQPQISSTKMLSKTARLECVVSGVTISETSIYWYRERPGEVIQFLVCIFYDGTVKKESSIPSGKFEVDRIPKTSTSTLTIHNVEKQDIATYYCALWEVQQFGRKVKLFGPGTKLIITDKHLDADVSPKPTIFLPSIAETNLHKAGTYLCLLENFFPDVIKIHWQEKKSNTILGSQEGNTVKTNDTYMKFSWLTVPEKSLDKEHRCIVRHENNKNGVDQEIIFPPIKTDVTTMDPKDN
Kind of test: bead binding assay: biotinylated TCR-Fc on streptavidin beads, IgG titrated, flow cytometry.

Test [3] deals with T1, cynomolgus Gamma/Delta1A TCR-Fc fusion …. The test is described as above.
The target is the same in test [4]. The description is as above. The source holds these as a separate data set.
Test [5] shares this target. Described as above. The source holds these as a separate data set.
Test [6] deals with T2, Cyno D2. The test is described as above.
The target in test [7] is T1, cynomolgus Gamma/Delta1A TCR-Fc fusion …. Description: bead binding assay (TCR-Fc on streptavidin beads, IgG titrated, flow cytometry); apparent KD.
For test [8], the target named is T2, Cyno D2. Description: bead binding assay: biotinylated TCR-Fc on streptavidin beads, IgG titrated, flow cytometry.
Test [9] deals with T2, Cyno D2. Described as above.
In test [10] the target is T3, human Delta1 TCR (Fc fusion protein, Delta1 clone and gamma chain not stated).
T3 construct: also called Human Delta1 Fc fusion protein; human delta-1 chain
Kind of test: bead binding titration, flow cytometry (MFI against antibody concentration).

Test [11] has as its target T3, human Delta1 TCR (Fc fusion protein, …). Kind of test: bead binding assay: Fc fusion proteins on streptavidin-coated beads, IgG titrated, flow cytometry.
The target of test [12] is T4, cynomolgus monkey Delta1 Fc fusion protein (Delta1 clone not stated).
T4 construct: also called monkey (cyno) delta-1 chain; monkey Delta1 receptors
The test is described as above.

Test [13] concerns the target T1, cynomolgus Gamma/Delta1A TCR-Fc fusion …. Kind of test: bead binding assay: biotinylated TCR-Fc on streptavidin beads, IgG titrated, flow cytometry. The source holds these as a separate data set.
Test [14] shares this target. Described as above. This is another data set of the same source.
Test [15] shares this target. Described as above. The source holds these as a separate data set.
Test [16] deals with T2, Cyno D2. The test is described as above.
Test [17] deals with T3, human Delta1 TCR (Fc fusion protein, …). Description: SPR: biotinylated TCR on a neutravidin-loaded Avicap chip, IgG flowed (OneStep, Pioneer instrument). (SPR reads the build-up and loss of mass on a sensor chip optically.)

Where two headings read alike, the source gives them in different places.

As usually defined, the EC50 (read off the curve) is the concentration giving half of the maximal effect.

B1: Delta1-19 (antibody, V domains shown)
VH: EVQLVESGGGLVQPGGSLRLSCAASGFTVSSSSIHWVRQAPGKGLEWVASIYSSSGYTYYADSVKGRFTISADTSKNTAYLQMNSLRAEDTAVYYCARDPGSYYWYYSGSAYEGYGLDYWGQGTLVTVSS
VL: DIQMTQSPSSLSASVGDRVTITCRASQSVSSAVAWYQQKPGKAPKLLIYAASSLQSGVPSRFSGSRSGTDFTLTISSLQPEDFATYYCQQMDRFYSLITFGQGTKVEIKR
notes: Tested in the human IgG format
Turning to B1, the Kd in test [1] was found to be 0.25 nM. For the same molecule, in the test with Cyno D2 [2], the binding result was “binds”.

B2: Delta1-36 (antibody, V domains shown)
VH: EVQLVESGGGLVQPGGSLRLSCAASGFTFSSNDIHWVRQAPGKGLEWVASIYSSSGYTYYADSVKGRFTISADTSKNTAYLQMNSLRAEDTAVYYCARDPGSYYWYYSGSAYEGYGLDYWGQGTLVTVSS
VL: DIQMTQSPSSLSASVGDRVTITCRASQSVSSAVAWYQQKPGKAPKLLIYAASSLQSGVPSRFSGSRSGTDFTLTISSLQPEDFATYYCQQQSKYPFLITFGQGTKVEIKR
notes: also called anti-Delta1-36
With B2, the “EC50 (read off the curve)” value in test [3] was about 3 nM.

B3: Delta1-33 (antibody, V domains shown)
VH: EVQLVESGGGLVQPGGSLRLSCAASGFTFSSSSIHWVRQAPGKGLEWVASIYSSSGYTYYADSVKGRFTISADTSKNTAYLQMNSLRAEDTAVYYCARDPGSYYWYYSGSAYEGYGLDYWGQGTLVTVSS
VL: DIQMTQSPSSLSASVGDRVTITCRASQSVSSAVAWYQQKPGKAPKLLIYAASSLQSGVPSRFSGSRSGTDFTLTISSLQPEDFATYYCQQQSKYPFLITFGQGTKVEIKR
notes: also called anti-Delta1-33
As to B3, the “EC50 (read off the curve)” value in test [4] is about 2 nM.

B4: Delta1-40 (antibody, V domains shown)
VH: EVQLVESGGGLVQPGGSLRLSCAASGFTFTSSSIHWVRQAPGKGLEWVASIYSSSGYTYYADSVKGRFTISADTSKNTAYLQMNSLRAEDTAVYYCARDPGSYYWYYSGSAYEGYGLDYWGQGTLVTVSS
VL: DIQMTQSPSSLSASVGDRVTITCRASQSVSSAVAWYQQKPGKAPKLLIYAASSLQSGVPSRFSGSRSGTDFTLTISSLQPEDFATYYCQQQSKYPFLITFGQGTKVEIKR
notes: also called anti-Delta1-40
For the molecule B4, in test [5], the “EC50 (read off the curve)” value was about 2 nM.

B5: Delta1-28 (antibody, V domains shown)
VH: EVQLVESGGGLVQPGGSLRLSCAASGFTVSSSSIHWVRQAPGKGLEWVASIYSSSGYTYYADSVKGRFTISADTSKNTAYLQMNSLRAEDTAVYYCARDPGSYYWYYSGSAYEGYGLDYWGQGTLVTVSS
VL: DIQMTQSPSSLSASVGDRVTITCRASQSVSSAVAWYQQKPGKAPKLLIYAASSLQSGVPSRFSGSRSGTDFTLTISSLQPEDFATYYCQQWMRSSSLFTFGQGTKVEIKR
notes: as for B1
As for B5, the Kd in test [1] is 0.36 nM. Moreover, the binding result with Cyno D2 [6] is given as “no binding (tested: 100 nM)”.

B6: Delta1-29 (antibody, V domains shown)
VH: EVQLVESGGGLVQPGGSLRLSCAASGFTVSSSSIHWVRQAPGKGLEWVASIYSSSGYTYYADSVKGRFTISADTSKNTAYLQMNSLRAEDTAVYYCARDPGSYYWYYSGSAYEGYGLDYWGQGTLVTVSS
VL: DIQMTQSPSSLSASVGDRVTITCRASQSVSSAVAWYQQKPGKAPKLLIYAASSLQSGVPSRFSGSRSGTDFTLTISSLQPEDFATYYCQQSGDDLITFGQGTKVEIKR
notes: as for B1
On to B6, for which, in test [7], the Kd came to 30.4 nM. Moreover, the binding result in the test with Cyno D2 [8] was “no binding (tested: 100 nM)”.

B7: Delta1-27 (antibody, V domains shown)
VH: EVQLVESGGGLVQPGGSLRLSCAASGFTVSSSSIHWVRQAPGKGLEWVASIYSSSGYTYYADSVKGRFTISADTSKNTAYLQMNSLRAEDTAVYYCARDPGSYYWYYSGSAYEGYGLDYWGQGTLVTVSS
VL: DIQMTQSPSSLSASVGDRVTITCRASQSVSSAVAWYQQKPGKAPKLLIYAASSLQSGVPSRFSGSRSGTDFTLTISSLQPEDFATYYCQQSSRNSKLITFGQGTKVEIKR
notes: as for B1
B7: the binding result with Cyno D2 [9] is on record as “no binding (tested: 100 nM)”. In addition, in test [7], the Kd was 0.78 nM.

B8: Delta1-41 (antibody, V domains shown)
VH: EVQLVESGGGLVQPGGSLRLSCAASGFTFSANDIHWVRQAPGKGLEWVASIYSSSGYTYYADSVKGRFTISADTSKNTAYLQMNSLRAEDTAVYYCARDPGSYYWYYSGSAYEGYGLDYWGQGTLVTVSS
VL: DIQMTQSPSSLSASVGDRVTITCRASQSVSSAVAWYQQKPGKAPKLLIYAASSLQSGVPSRFSGSRSGTDFTLTISSLQPEDFATYYCQQQSKYPFLITFGQGTKVEIKR
notes: Tested in the human IgG format; also called anti-Delta1-41
In the case of B8, the “EC50 (read off the curve)” value in [10] is about 1 nM; in test [11] it was 2 to 3 nM; in test [12], about 2 nM. Further, the Kd in [7] was found to be 2.7 nM.

B9: Delta1-37 (antibody, V domains shown)
VH: EVQLVESGGGLVQPGGSLRLSCAASGFTFTGSSIHWVRQAPGKGLEWVASIYSSSGYTYYADSVKGRFTISADTSKNTAYLQMNSLRAEDTAVYYCARDPGSYYWYYSGSAYEGYGLDYWGQGTLVTVSS
VL: DIQMTQSPSSLSASVGDRVTITCRASQSVSSAVAWYQQKPGKAPKLLIYAASSLQSGVPSRFSGSRSGTDFTLTISSLQPEDFATYYCQQQSKYPFLITFGQGTKVEIKR
notes: also called anti-Delta1-37
Take B9: the “EC50 (read off the curve)” value in test [13] was about 2 nM.

B10: Delta1-38 (antibody, V domains shown)
VH: EVQLVESGGGLVQPGGSLRLSCAASGFTFTSSDIHWVRQAPGKGLEWVASIYSSSGYTYYADSVKGRFTISADTSKNTAYLQMNSLRAEDTAVYYCARDPGSYYWYYSGSAYEGYGLDYWGQGTLVTVSS
VL: DIQMTQSPSSLSASVGDRVTITCRASQSVSSAVAWYQQKPGKAPKLLIYAASSLQSGVPSRFSGSRSGTDFTLTISSLQPEDFATYYCQQQSKYPFLITFGQGTKVEIKR
notes: also called anti-Delta1-38
Consider B10, for which the “EC50 (read off the curve)” value in test [14] was about 3 nM.

B11: Delta1-34 (antibody, V domains shown)
VH: EVQLVESGGGLVQPGGSLRLSCAASGFTFSGTDIHWVRQAPGKGLEWVASIYSSSGYTYYADSVKGRFTISADTSKNTAYLQMNSLRAEDTAVYYCARDPGSYYWYYSGSAYEGYGLDYWGQGTLVTVSS
VL: DIQMTQSPSSLSASVGDRVTITCRASQSVSSAVAWYQQKPGKAPKLLIYAASSLQSGVPSRFSGSRSGTDFTLTISSLQPEDFATYYCQQQSKYPFLITFGQGTKVEIKR
notes: also called anti-Delta1-34
As for B11, the “EC50 (read off the curve)” value in test [15] is about 3 nM.

B12: Delta1-17 (antibody, V domains shown)
VH: EVQLVESGGGLVQPGGSLRLSCAASGFTVSSSSIHWVRQAPGKGLEWVASIYSSSGYTYYADSVKGRFTISADTSKNTAYLQMNSLRAEDTAVYYCARDPGMYYWYYSGSAYEGYGLDYWGQGTLVTVSS
VL: DIQMTQSPSSLSASVGDRVTITCRASQSVSSAVAWYQQKPGKAPKLLIYSASSLYSGVPSRFSGSRSGTDFTLTISSLQPEDFATYYCQQSGDDLITFGQGTKVEIKR
notes: also called anti-Delta1-17; Delta-17
With B12, in test [10], the “EC50 (read off the curve)” value is about 0.5 nM. Moreover, the binding result with Cyno D2 [16] is recorded as “no binding (tested: 100 nM)”. The Kd was 4.6 nM in test [17] and 13.7 nM in test [7].
